Data on one substance can be found in publication PMC13418734.

Assay [1] addresses Fluc^A12C-K329C (Fluc^NDS1, N-terminal domain sensor) (firefly). Put plainly: FRET or BRET; single-molecule FRET (TIRF) within AF555/AF647-labelled Fluc immobilised on a neutravidin coverslip; the low-FRET (<0.3) state is read as DnaK bound; DnaJ 0.6 uM, DnaK 20 uM, GrpE 1.2 uM and HtpG 10 uM (KJEG); ATP; imaging buffer, room temperature. (In BRET a luciferase serves as donor, and the signal depends on an acceptor being close.)

Assay [2] has as its target Fluc^K378C-K496C (Fluc^CDS1, C-terminal domain sensor) (firefly). The assay is described as above.

As to “DnaK (Escherichia coli Hsp70) (from UniProt P0A6Y8 1-638) (natural protein)”, the percent of the time DnaK bound (<0.3 FRET) after 15 min in assay [1] and in assay [2] was 15% in each case.
